Results as given in patent publication US20190062448A1, “ANTI-CD39 ANTIBODIES, COMPOSITIONS COMPRISING ANTI-CD39 ANTIBODIES AND METHODS OF USING ANTI-CD39 ANTIBODIES” (Tizona Therapeutics, priority 2017, published 2019).
“Also recorded” adds a separate entry of the source.

Experiments:
[1] = target: T1, human CD39 endogenously expressed on MEL-28 cells (Homo sapiens, UniProt P49961); test: EnzChek kinetic Pi detection assay on MEL-28 cells (initial velocity, Michaelis-Menten); format: cell-based; details: ARL 200 micromolar, isotype control 7.7
T1 construct: MEL-28 cells (35,000 MEL-28 cells/well) endogenously expressing human CD39; endogenous in cells; host or cells: MEL-28
T1 sequence (P49961 1-510): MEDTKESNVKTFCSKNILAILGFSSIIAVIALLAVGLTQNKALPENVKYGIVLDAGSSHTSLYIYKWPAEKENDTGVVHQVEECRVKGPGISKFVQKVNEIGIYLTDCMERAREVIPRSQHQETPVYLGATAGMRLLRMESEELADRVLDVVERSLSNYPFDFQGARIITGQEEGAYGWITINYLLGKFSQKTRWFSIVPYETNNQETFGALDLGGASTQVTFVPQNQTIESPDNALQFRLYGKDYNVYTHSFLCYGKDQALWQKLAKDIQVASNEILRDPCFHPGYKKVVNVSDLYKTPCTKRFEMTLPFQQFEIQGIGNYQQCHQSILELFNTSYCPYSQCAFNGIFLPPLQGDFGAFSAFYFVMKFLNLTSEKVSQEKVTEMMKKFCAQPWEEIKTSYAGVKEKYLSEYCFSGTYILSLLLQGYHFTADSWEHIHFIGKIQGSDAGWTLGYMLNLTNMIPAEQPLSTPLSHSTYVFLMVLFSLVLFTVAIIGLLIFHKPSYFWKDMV
Description: Anti-CD39 antibodies (100 nanomolar), isotype control antibody (100 nanomolar), or ARL (200 micromolar) were incubated with MEL-28 cells endogenously expressing human CD39 for 2 hours. ATP was then added and the rate of ATP hydrolysis to Pi by CD39 was monitored using the EnzChek kinetic Pi detection assay. The initial enzyme velocity, ν0, was determined from the linear region of Pi vs. time curve over the first 15 minutes post-ATP addition. Each value is the mean of 3 replicates.
Anti-CD39 antibodies or isotype control antibody (100 nanomolar final concentration) were incubated with MEL-28 cells (35,000 MEL-28 cells/well) endogenously expressing human CD39 at 37° C. for 20 minutes in the presence of EnzChek reagents (PNP & MESG). Immediately following the addition of ATP (final concentrations ranging from 0-450 micromolar), the rate of ATP hydrolysis to free phosphate (Pi) by CD39 was monitored over time at Abs360 nm using SpectraMax i3x plate reader. The initial enzyme velocity, ν0, was determined from the linear region of Pi vs. time curve for each ATP concentration. The plot of ν0 vs. [ATP] was curve fit using non-linear regression of the Michaelis-Menten kinetic model.

[2] = target: T2, CD39 expressed on MEL-28 cells (Homo sapiens, UniProt P49961); test: Cellular CD39 ATPase inhibition (Malachite Green), Example 15; format: cell-based; details: 10-25 μg/ml antibody; 50 μM ATP; vs isotype control
T2 construct: endogenous in cells; host or cells: MEL-28
T2 sequence (P49961 1-510): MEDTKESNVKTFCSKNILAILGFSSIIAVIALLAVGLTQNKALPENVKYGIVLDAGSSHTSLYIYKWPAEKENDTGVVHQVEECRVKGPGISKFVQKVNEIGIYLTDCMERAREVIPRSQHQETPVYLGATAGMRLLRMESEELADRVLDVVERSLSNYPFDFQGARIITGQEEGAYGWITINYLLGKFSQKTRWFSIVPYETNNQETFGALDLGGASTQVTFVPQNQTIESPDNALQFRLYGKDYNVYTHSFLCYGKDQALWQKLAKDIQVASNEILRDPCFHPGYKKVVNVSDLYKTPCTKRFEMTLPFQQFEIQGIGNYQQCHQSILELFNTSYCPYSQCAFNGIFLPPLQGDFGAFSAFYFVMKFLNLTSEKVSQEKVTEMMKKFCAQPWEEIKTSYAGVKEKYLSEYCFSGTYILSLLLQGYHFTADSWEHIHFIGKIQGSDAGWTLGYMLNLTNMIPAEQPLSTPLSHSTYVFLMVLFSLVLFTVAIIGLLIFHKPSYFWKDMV
Description: Indicated cells were incubated in assay buffer with 10-25 μg/ml antibody, 100 μM POM-1 or 100 μM ARL for 30 min at 37° C. 5% CO2. ATP was added to a final concentration of 50 μM and the incubation continued for 15 min. Supernatant was evaluated for free phosphate (Pi) using the Malachite Green Phosphate Detection kit. Palivizumab is used as an isotype control and POM-1 and ARL are non-specific small molecule inhibitors of CD39.
(§1) Also, an 18 hour incubation was used with the antibody or isotype control. Finally, an additional 30 second baseline dip in buffer between antigen capture and dipping into a second competitor antibody for 300 seconds was used.

[3] = target: T3, hCD39-ECD (Homo sapiens, UniProt P49961); test: Epitope binning / competition for hCD39-ECD binding by Bio-Layer Interferometry
T3 sequence (P49961 38-478 limits assumed): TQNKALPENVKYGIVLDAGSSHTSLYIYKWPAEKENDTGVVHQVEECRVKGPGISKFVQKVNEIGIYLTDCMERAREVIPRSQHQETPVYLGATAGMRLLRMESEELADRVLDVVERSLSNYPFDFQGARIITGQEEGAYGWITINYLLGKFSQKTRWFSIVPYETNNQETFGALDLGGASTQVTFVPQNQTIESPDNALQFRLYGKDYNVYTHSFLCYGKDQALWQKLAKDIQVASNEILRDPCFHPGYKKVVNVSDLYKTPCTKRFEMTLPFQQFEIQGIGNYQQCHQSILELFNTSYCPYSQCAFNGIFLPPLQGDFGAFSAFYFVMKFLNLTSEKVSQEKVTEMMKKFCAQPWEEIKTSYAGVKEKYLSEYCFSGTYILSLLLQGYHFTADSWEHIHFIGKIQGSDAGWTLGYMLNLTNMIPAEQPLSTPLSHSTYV
Source text: A1 antibody was immobilized onto an Anti-Mouse IgG Fc Capture (AMC) biosensor (ForteBio). Association of hCD39-ECD was then monitored for 180 seconds via Bio-Layer Interferometry (BLI) using the Octet system (ForteBio), at which point the biosensor was dipped into competitor antibody and monitored for another 180 seconds.
The methods are the same as set forth above except that instead of A1, the representative antibody was immobilized using anti-human IgG Fc Capture (AHC) biosensor.
as §1

[4] = target: T3, hCD39-ECD; test: rhCD39-ECD ATPase inhibition (Malachite Green free phosphate); format: biochemical; set-up: purchased R&D Systems; details: 50 μg/ml antibody; 10 μM ATP; vs isotype or buffer controls
Description: 0.04-3.3 nM rhCD39-ECD (R&D Systems) was incubated with buffer, 50 μg/ml antibody or 100 μM POM-1 (Alpha Aesar) for 1 hr at 37° C. in assay buffer (25 mM Tris pH 7.5, 5 mM CaCl2) at which point ATP (Sigma) was spiked in to a final concentration of 10 μM, and the reaction further incubated for 30 min 37° C. Production of free phosphate (Pi) was subsequently measured using Malachite Green Phosphate Detection kit (R&D Systems).
as §1

Molecule	ATP hydrolysis rate (initial velocity) [1] [micromolar Pi per minute]	inhibition of ATPase activity of CD39 expressed on MEL-28 cells [2]	competition / binning with other anti-CD39 antibody bin groups for ECD binding [3]	competition with antibody A1 for binding to hCD39 ECD ([3]; A1 immobilized, ECD captured, then competitor antibody)	inhibition of ATPase activity of soluble hCD39 ECD (μM Pi) [4]
CCN(CC)c1ncnc2c1ncn2[C@@H]1O[C@H](COP(=O)(O)OP(=O)(O)C(Br)(Br)P(=O)(O)O)[C@@H](O)[C@H]1O [ARL]	1.2	–	–	–	–
27571: anti-human CD39 antibody inhibiting soluble ECD and cellular CD39 (antibody, V domains shown, Synthetic VH, 27571; Synthetic VL, 27571) VH: QVQLVQSGAEVKKPGSSVKASCKASGGTFSSYAISWVRQAPGQGLEWMGSIIPIFGTANYAQKFRGRVTITADESTSTTYMELSSLRSEDTAVYYCARESGGYRDHRLDVWGQGTMVTVSS VL: EIVMTQSPATLSVSPGERATLSCRASQSVGSNLAWYQQKPGQAPRLLIYGASTRATGIPARFSGSGSGTEFTLTISSLQSEDFAVYYCQQYLIWPLTFGGGTKVEIK	–	inhibit the hydrolysis of CD39 expressed on MEL-28 cells	do not compete	does not block binding; also recorded: do not compete	able to inhibit the hydrolysis of ATP by hCD39 ECD
